Source: US20210269480A1 (published 2021)
*1 amine or outer side, *2 acyl side, *3 side chain or, on linkers, in order; H or OH if unused. Bridges are numbered along the chain shown (N, C = ends). Primed or numbered codes have the meaning given here. Where no end group is shown, it is not given here. [ ]: non-standard residue; d: D form. TATA = O=C(CC[*:1])N1CN(C(=O)CC[*:2])CN(C(=O)CC[*:3])C1; 1Nal = N[C@@H](Cc1cccc2ccccc12)C(=O)O; PABC = O=C(OCc1ccc(N[*:1])cc1)[*:2]; Glutaryl = O=C(CCCC(=O)[*:2])[*:1]; Cya = N[C@@H](CS(=O)(=O)O)C(=O)O; Hyp = O=C(O)[C@@H]1C[C@@H](O)CN1; dCya = N[C@H](CS(=O)(=O)O)C(=O)O; hArg = N=C(N)NCCCC[C@H](N)C(=O)O; Cit = NC(=O)NCCC[C@H](N)C(=O)O; MMAE = monomethyl auristatin E; PABC′ = p-aminobenzylcarbamate; βAla = NCCC(=O)O; Sar = CNCC(=O)O

T1: human Nectin-4 (human, UniProt Q96NY8 32-349)
T1 construct: a Gly32-Ser349 FLAG construct is described only under the SPR assay; also called PVRL4
T1 sequence (looked up): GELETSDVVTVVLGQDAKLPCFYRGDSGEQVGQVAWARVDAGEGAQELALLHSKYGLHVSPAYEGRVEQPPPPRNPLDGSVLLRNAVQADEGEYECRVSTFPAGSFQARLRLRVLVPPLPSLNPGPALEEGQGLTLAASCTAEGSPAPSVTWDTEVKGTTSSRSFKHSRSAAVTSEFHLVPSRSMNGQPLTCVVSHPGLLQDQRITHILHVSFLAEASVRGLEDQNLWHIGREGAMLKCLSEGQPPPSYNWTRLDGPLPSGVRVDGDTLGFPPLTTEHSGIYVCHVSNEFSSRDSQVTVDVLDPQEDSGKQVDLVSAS

T2: Human Nectin-4 (residues Gly32-Ser349) with C-terminal FLAG tag, biotinylated (human, UniProt Q96NY8 32-349, randomly biotinylated with EZ-Link Sulfo-NHS-LC-LC-Biotin)
T2 construct: range 32-349; Captured through biotin on a streptavidin CM5 chip in the SPR assay; also called PVRL4; not shown: C-terminal FLAG tag
T2 sequence (looked up): T1 sequence (looked up)

B1: BCY3400 (peptide)
peptide: QKWCAPLSDYWCNRICA
modifications: linker 4-12-16 via TATA; not fully specified
notes: also called 80-10-13-T01
B2: BCY8161 (peptide)
peptide: Ac-CP[1Nal][dD]CM[hArg][Cya]WSTP[Hyp]WC
modifications: linker 1-5-15 via TATA (inferred)
B3: BCY3406 (peptide)
peptide: ACVTTSYDCWVTLGHCSRF
modifications: linker 2-9-16 via TATA; not fully specified
notes: Direct FP used peptides with a fluorescent tag; also called 80-11-08-T01
B4: BCY472 (peptide)
peptide: ACVTTSYDCWVRLGQCA
modifications: linker 2-9-16 via TATA; not fully specified
notes: Direct FP used peptides with a fluorescent tag; also called 80-11-01
B5: BCY8208 (peptide)
peptide: carboxyfluorescein-CPF[dD]CM[hArg]NWSTPIWC
modifications: linker 1-5-15 via TATA
B6: 80-09-02-N006 (peptide)
peptide: ACPFGCMKNWSWPIWCA
modifications: linker 2-6-16 via TATA; not fully specified (N-terminus)
notes: also called FI-A-(SQ ID NO: 1)-A
B7: BCY462 (peptide)
peptide: VDWCAPLDDYWCDRICA
modifications: linker 4-12-16 via TATA; not fully specified
notes: Direct FP used peptides with a fluorescent tag; also called 80-10-12-T01
B8: BCY471 (peptide)
peptide: ACVTTSYDCFLHLLGCA
modifications: linker 2-9-16 via TATA; not fully specified
notes: Direct FP used peptides with a fluorescent tag; also called 80-11-00
B9: BCY488 (peptide)
peptide: ACWPLDSYWCARICA
modifications: linker 2-10-14 via TATA; not fully specified
notes: Direct FP used peptides with a fluorescent tag; also called 80-10-00
B10: BCY8278 (peptide)
peptide: {Ac-βAla}-[Sar][Sar][Sar][Sar][Sar][Sar][Sar][Sar][Sar][Sar]CP[1Nal][dD]CM[hArg][Cya]WSTP[Hyp]WC
modifications: linker 11-15-25 via TATA (inferred)
B11: BCY8281 (peptide)
peptide: {Ac-βAla}-[Sar][Sar][Sar][Sar][Sar][Sar][Sar][Sar][Sar][Sar]CP[1Nal][dD]CM[Cya][Cya]WSTP[Hyp]WC
modifications: linker 11-15-25 via TATA (inferred)
B12: BCY8280 (peptide)
peptide: {Ac-βAla}-[Sar][Sar][Sar][Sar][Sar][Sar][Sar][Sar][Sar][Sar]CP[1Nal][dCya]CM[hArg][Cya]WSTP[Hyp]WC
modifications: linker 11-15-25 via TATA (inferred)
B13: BCY8784 (peptide)
peptide: {MMAE-PABC′-Cit-Val-Glutaryl-βAla}-[Sar][Sar][Sar][Sar][Sar][Sar][Sar][Sar][Sar][Sar]CP[1Nal][dCya]CM[hArg][Cya]WSTP[Hyp]WC
modifications: linker 11-15-25 via TATA (inferred)
B14: BCY8277 (peptide)
peptide: {Ac-βAla}-[Sar][Sar][Sar][Sar][Sar][Sar][Sar][Sar][Sar][Sar]CP[1Nal][dD]CM[Cya]DWSTP[Hyp]WC
modifications: linker 11-15-25 via TATA
notes: Bicyclic peptide cyclised with TATA
B15: BCY8193 (peptide)
peptide: Ac-CP[1Nal][dR]CMPDWSTP[Hyp]WC
modifications: linker 1-5-15 via TATA
notes: as for B14
B16: BCY8215 (peptide)
peptide: Ac-CP[1Nal][dR]CM[hArg]DWSTPIWC
modifications: linker 1-5-15 via TATA
notes: as for B14
B17: BCY8276 (peptide)
peptide: {Ac-βAla}-[Sar][Sar][Sar][Sar][Sar][Sar][Sar][Sar][Sar][Sar]CP[1Nal][dCya]CM[hArg]DWSTP[Hyp]WC
modifications: linker 11-15-25 via TATA
notes: as for B14
B18: BCY8194 (peptide)
peptide: Ac-CP[1Nal][dR]CM[Hyp]DWSTP[Hyp]WC
modifications: linker 1-5-15 via TATA
notes: as for B14
B19: BCY8279 (peptide)
peptide: {Ac-βAla}-[Sar][Sar][Sar][Sar][Sar][Sar][Sar][Sar][Sar][Sar]CP[1Nal][dCya]CM[Cya]DWSTP[Hyp]WC
modifications: linker 11-15-25 via TATA
notes: as for B14
B20: BCY7825 (peptide)
peptide: {MMAE-PABC′-Cit-Val-Glutaryl-βAla}-[Sar][Sar][Sar][Sar][Sar][Sar][Sar][Sar][Sar][Sar]CPF[dD]CM[hArg]NWSTPIWC
modifications: linker 11-15-25 via TATA
notes: also called MMAE-PABC-Cit-Val-Glutaryl-BCY7814
B21: BCY8253 (peptide)
peptide: {MMAE-PABC′-Cit-Val-Glutaryl-βAla}-[Sar][Sar][Sar][Sar][Sar][Sar][Sar][Sar][Sar][Sar]CP[1Nal][dR]CL[hArg]HWSTP[Hyp]WC
modifications: linker 11-15-25 via TATA
notes: also called MMAE-PABC-Cit-Val-Glutaryl-BCY8231
B22: BCY8254 (peptide)
peptide: {MMAE-PABC′-Cit-Val-Glutaryl-βAla}-[Sar][Sar][Sar][Sar][Sar][Sar][Sar][Sar][Sar][Sar]CP[1Nal][dR]CM[hArg]NWSTP[Hyp]WC
modifications: linker 11-15-25 via TATA
notes: also called MMAE-PABC-Cit-Val-Glutaryl-BCY8232
B23: BCY8245 (peptide)
peptide: {MMAE-PABC-Cit-Val-Glutaryl-βAla}-[Sar][Sar][Sar][Sar][Sar][Sar][Sar][Sar][Sar][Sar]CP[1Nal][dD]CM[hArg]DWSTP[Hyp]WC
modifications: linker 11-15-25 via TATA
notes: also called BT8009; MMAE-PABC-Cit-Val-Glutaryl-BCY8234
B24: BCY8255 (peptide)
peptide: {MMAE-PABC′-Cit-Val-Glutaryl-βAla}-[Sar][Sar][Sar][Sar][Sar][Sar][Sar][Sar][Sar][Sar]CP[1Nal][dR]CM[hArg]DWSTP[Hyp]WC
modifications: linker 11-15-25 via TATA
notes: also called MMAE-PABC-Cit-Val-Glutaryl-BCY8235
B25: BCY8783 (peptide)
peptide: {MMAE-PABC′-Cit-Val-Glutaryl-βAla}-[Sar][Sar][Sar][Sar][Sar][Sar][Sar][Sar][Sar][Sar]CP[1Nal][dCya]CM[hArg]DWSTP[Hyp]WC
modifications: linker 11-15-25 via TATA
notes: also called MMAE-PABC-Cit-Val-Glutaryl-BCY8269
B26: BCY7683 (peptide)
peptide: {MMAE-PABC-Cit-Val-Glutaryl-βAla}-[Sar][Sar][Sar][Sar][Sar]CPF[dD]CM[hArg]NWSWPIWC
modifications: linker 6-10-20 via TATA
notes: also called MMAE-PABC-Cit-Val-Glutaryl-BCY7556

biological target: T1, human Nectin-4; assay: FP competition, tracer SEQ ID NO 217
Experimental: Peptides were diluted to an appropriate concentration in assay buffer as described in the direct binding assay with a maximum of 5% DMSO, then serially diluted 1 in 2. […] Measurements were conducted as for the direct binding assay, however the gain was determined prior to the first measurement. Data analysis was in Systat Sigmaplot version 12.0 where the mP values were fit to a user defined cubic equation to generate a Ki value: […]

Ki [nM] | Binder
47 | B1
4 | B2

biological target: T1, human Nectin-4; assay: FP direct binding, fluorescent peptide
Experimental: Affinity of the peptides of the invention for human Nectin-4 (Ki) was determined using a fluorescence polarisation assay, in accordance with the methods disclosed in WO 2016/067035. […] Measurements were conducted on a BMG PHERAstar FS equipped with an “FP 485 520 520” optic module which excites at 485 nm and detects parallel and perpendicular emission at 520 nm. The PHERAstar FS was set at 25° C. with 200 flashes per well and a positioning delay of 0.1 second, with each well measured at 5 to 10 minute intervals for 60 minutes. […] Data was analysed using Systat Sigmaplot version 12.0. mP values were fit to a user defined quadratic equation to generate a Kd value: f=ymin+(ymax−ymin)/Lig*((x+Lig+Kd)/2-sqrt((((x+Lig+Kd)/2)\hat{ }2)-(Lig*x))).

Ki [nM] | Binder
30 | B3
502 | B4
745 | B5
5 | B6
269 | B7
72 | B1
888 | B8
208 | B9

biological target: Human Nectin-4 (residues Gly32-Ser349) with C-terminal FLAG tag, biotinylated (human) (UniProt Q96NY8); assay: SPR (Biacore), biotinylated human Nectin-4 on streptavidin chip

Kd [nM] | Binder
1.92 | B10
6.11 | B11
2 | B12
0.94 | B2
0.662 | B13

biological target: T2, Human Nectin-4 (residues Gly32-Ser349) …; assay: as above

Kd [nM] | Binder
5.99 | B14
1.3 | B15
1.62 | B16
0.86 | B17
1.9 | B18
3.31 | B19

biological target: T2, Human Nectin-4 (residues Gly32-Ser349) …; assay: as above; remark: another data set of the same source

Kd [nM] | Binder
11.6 | B20
6.22 | B21
4.11 | B22
5.12 | B23
8.58 | B24
0.804 | B25
27.1 | B26
